In US20170218047A1, “NOVEL FUSION PARTNERS FOR THE PURPOSE OF CRYSTALLIZING G-PROTEIN COUPLED RECEPTORS” (THE SCRIPS RESEARCH INSTITUTE, priority 2011, published 2017):

Experiments:
[1] = Fluorescence (CPM) thermostability assay of β2AR constructs; assay type: physicochemical; settings: 100 μM timolol; for thermostability: more stable than β2AR-T4L: increase relative to β2AR-T4L; for thermostability: less stable relative to β2AR-T4L: decrease relative to β2AR-T4L
Procedure: N-[4-(7-diethylamino-4-methyl-3-coumarinyl)phenyl]maleimide (CPM) dye was purchased from Invitrogen and dissolved in DMSO (Sigma) at 4 mg/mL as the stock solution for future use. The stock solution was kept at −80° C. and was diluted 1:40 in dye dilution solution (10 mM buffer, 500 mM NaCl, 10% glycerol, 0.025% DDM and 0.005% CHS) before use. The thermal denaturation assay was performed with total volume of 200 μL sample in a quartz fluorometer cuvette (Starna Cells, Inc., Atascadero, Calif.). Receptor (4 μg) was diluted in the appropriate buffer solution to a final volume of 200 μL, 5 μL of the diluted dye was added to the protein solution and incubated for 30 min at 4° C. The mixed solution was transferred to the cuvette and the data were collected by a Cary Eclipse spectrofluorometer (Varian, USA) with a temperature ramping rate at 2° C./min. The excitation wavelength was 387 nm and the emission wavelength was 463 nm. All assays were performed over a temperature range starting from 20° C. and 95° C. The stability data were processed with GraphPad Prism program (GraphPad Prism, Graphpad Software, San Diego, Calif., USA). In order to determine the melting temperature (Tm), a Boltzmann sigmoidal equation was used to fit to the data.
The thermostability of the different β2AR constructs was then evaluated. Assays were carried out in the presence of 100 μM timolol to maintain receptor stability during heating. […] We thus selected β2AR-BRIL and β2AR rubredoxin for further crystallization studies.

[2] = Size exclusion chromatography (SEC) of purified S1P1-fusion partner proteins; assay type: physicochemical; settings: presence or absence of ligand
Procedure: S1P1-fusion partner proteins (“S1P1 fusion receptors”) were purified from membranes by dodecyl-maltoside (DDM) extraction followed by immobilized metal affinity chromatography (IMAC) on Talon resin (Clontech) as detailed below. Frozen cellular membranes were thawed by adding room temperature lysis buffer to a total volume of 25 mL. The S1P1 receptor antagonist W146 was added to a final concentration of 125 μM. The mixture was allowed to incubate at room temperature for 1 hour to ensure complete saturation of the receptor with ligand followed by addition of iodoacetamide to a concentration of 1 mg/mL and an additional 1 hour incubation at 4° C. Receptor solubilization was initiated by addition of detergent and cholesteryl hemisuccinate (CHS) to achieve a final concentration of 0.5% DDM 0.1% CHS. The solubilization buffer consisted of the following mixture: 50 mM Hepes pH 7.5; 800 mM NaCl; 30 mM Imidazole; 0.1% DDM 0.02% CHS; 125 μM W146. […]
Eluted proteins were analyzed by size-exclusion chromatography (SEC) followed by SDS-PAGE. […] SEC fractions corresponding to S1P1-fusion partner proteins were evaluated separated by SDS-PAGE on a 10% gel and stained, confirming that each S1P1-fusion partner protein could be purified to near-homogeneity (data not shown).

132AR-rubredoxin: β2-adrenergic receptor fused with rubredoxin, SEQ ID NO: 11
thermostability: more stable than β2AR-T4L [1]: approximately 8 °C

S1P1-Bril: S1P1 receptor with cytochrome b562 RIL replacing part of ICL3, SEQ ID NO: 2
stability by SEC (in words) [2]: stable in the presence or absence of ligand

β2AR xylanase: β2-adrenergic receptor fused with xylanase, SEQ ID NO: 12
thermostability: more stable than β2AR-T4L [1]: about 3 °C

β2AR-BRIL: β2-adrenergic receptor with cytochrome b562 RIL replacing the third intracellular loop, SEQ ID NO: 10
thermostability: more stable than β2AR-T4L [1]: approximately 8 °C

β2AR-C-term T4L: β2-adrenergic receptor fused with T4 lysozyme C-terminal fragment, SEQ ID NO: 9
thermostability: less stable relative to β2AR-T4L [1]: ~4 °C

β2AR-flavodoxin: β2-adrenergic receptor fused with flavodoxin in place of T4L, SEQ ID NO: 13
thermostability: less stable relative to β2AR-T4L [1]: about 9 °C
